Laboratory results reported in patent publication US20200113997A1.

Biological target: Man9-V3 glycopeptide (HIV-1 (clade B JRFL mini-V3))
Test: BLI, biotinylated peptide on streptavidin sensor, bivalent avidity model

Q: For DH270.1 (antibody), which Kd is on record?
A: 331 nM
